Where a chain is given by its changes, count along the chain named.
B1: 5A7 IgG1 (antibody, V domains shown)
VH: EVQVQESGPGLVKPSQTLSLTCTVSGASITNRRYAWTWIRQPPGKGLEWMGVIVYDGNTHVSPSLRSRTSISRDTSKNQFSLQLSSLTPEDTAVYYCARVLLLRDPLSLDYWGQGTQVTVSS
VL: SSALTQPPSMSGTLGKTLTISCAGTSSDIGAYNFVSWYQQLPGTAPKLLIYDIDKRASGIPDRFSGSKSGNTASLSISGLQSEDEADYYCAAYGSRDNVVFGGGTHLTVL
notes: IgG1 format
B2: 14C7 IgG1 (antibody, V domains shown)
VH: QVQVQESGPGLVKPSQTLSLTCTVSGGSITTNSYYWSWIRQPPGKGLEWMGAIDYSGDTYYSPSLKSRTSISRDTSKNQFTLQLTSVTPEDTAVYYCVSRIPTGEYWGQGTQVTVSS
VL: QTVVTQEPSLSVSPGGTVTLTCGLNSGSVTSSNYPDWYQQTPGQAPRLLIYNTNSRHSGVPSRFSGSISGNKAALTITGAQPEDEADYYCALYMGSDSVVFGGGTHLTVL
notes: IgG1 format
B3: 6A6 IgG1 (antibody, V domains shown)
VH: EVQLVESGGGLVQPGGSLRLSCAASGFTFSSYAGRWVRQVPGKGLEWVSSINAGGGSTSYADSVKGRFTISRDNAKNTLYLQMNSLKPEDTAKYYCTQNSYRYWGQGTRVAVSS
VL: DVVLTQTPGSLSVVPGESASISCKASQSLIHTDGKTYLYWLLQKPGQRPQLLIYQVSSHESGVPDRFTGSGSGTDFTLKISGVKAEDAGVYYCAQATYNPRTFGQGTKLEIK
notes: IgG1 format
B4: 10B6 scFv-Fc (Fc fusion)
VH: EVQLVESGGGLVQPGGSLRLSCAASGFTFSSYAMRWVRQAPGKGLEWISSINIDGGSTRYTDSVQGRFTVSRDNAKNTLYLQMNNLKPEDTGIYYCTIQGYIYWGQGTQVTVSS
VL: ATMLTQSPGSLSIVPGESASISCKASQSLVHSNGVIYFYWLLQKPGQSPQRLIYQVSNRDSGVPDRFTGSGSGTDFTLKISGVKAEDAGVYYCAQGTYYPHSFGSGTRLQIK
notes: scFv-Fc format
B5: 5E5 scFv-Fc (Fc fusion)
VH: QLQLVESGGGLVQPGGSLRLSCAASGFTFGTYSMRWVRQVPRKALEWVSSISTDGGGTAYRDSVKGRFTISRDNAKNTLYLQMNNLKPEDTAIYYCVIAGYSDWGQGTQVTVSS
VL: ATMLTQSPGSLSVVPGESASISCKTSQGLVHSDGKTYFYWFLQKPGQSPQQLIYQVSNRASGVPDRFTGSGSGTDFTLKISGVKAEDAGVYYCAQGTYYPHTFGSGTRLEIK
notes: scFv-Fc format
B6: 5A4 scFv-Fc (Fc fusion)
VH: QLQLVESGGGLVQPGGSLRLSCVASGFAFSHYTMYWVRQAPVRGLERVSAISGGGDRTIYTDSVKGRFTISRDNAANALYLQMNSLQPEDTAVYYCVAQGYEYWGQGTRVTVSS
VL: ATMLTQSPGSLSVVPGESASISCKAIQSLVHTDGKTYLYWFLQKPGQSPQRLIYQVSNRGSGVPDRFTGSGSGTDFTLKISGVKAEDAGVYYCAQGTYSSKTFGQGTKLEIK
notes: scFv-Fc format
B7: 8F4 scFv-Fc (Fc fusion)
VH: QLQLVESGGGLVQPGGSLRLSCAASGFAFSSYSMYWVRQAPGKGLERVAAIKTDGGSTNYADSVKGRFTVSRDNAKNTLYLQMNSLKSEDTAVYYCVIQGYGTWGQGTQVTVSS
VL: DLVLTQIPGSLSVVPGESASISCKASQSLVHSDGKTYLYWLLQKPGQSPQRLIYQVSNRGSGVPDRFTGSGSGTDFTLKISGVEAEDAGVYYCAQATYYGHSFGSGTRLEIK
notes: scFv-Fc format
B8: 8H4 scFv-Fc (Fc fusion)
VH: ELQLVESGGGLVQPGRSLRLSCAASGFTFSSYSMRWVRQTPGKGLEWVTSINSDGGSTKYSDSVKGRFTISRDNAKNTLYLQMNNVKPEDTAIYYCAIQGYTDWGQGTQVTVSS
VL: B7 VL with L2V, I7T, A25V, G60D, E84K, A96G, Y99N, G100P, H101Y, S102T
notes: scFv-Fc format
B9: 6A6 scFv-Fc (Fc fusion)
VH: B3 VH
VL: B3 VL
notes: scFv-Fc format
B10: 8A4 scFv-Fc (Fc fusion)
VH: QVQLVESGGGLVQPGGSLKVSCTASGFTFNNYAMRWVRQAEGKGLEWVSSIDSGGDRTKYGDSVKGRFSISRDNAKNTVYLQMDALKPEDTGVYYCVSQGYIFWGQGAQVTVSS
VL: ATMLTQSPGSLSVVPGESASISCKASQSLVHSDGKTYLYWLLQKPGQRPQLLIYQVSNHESGVPDRFTGSGSGTDYTLKISGVKAEDAGVYYCAQATYYPLTFGQGTKVELK
notes: scFv-Fc format
B11: 5A11 scFv-Fc (Fc fusion)
VH: QVQVQESGPGLVKPSQTLSLTCTVSGVSITTRYYAWSWIRQPPGKGLEWMGVIAYDGSTYYSPSLKSRTSISRDTSKNQFSLQLTSVTPEDTAVYYCARVRLIEAPYEYDYWGQGTQVTVSS
VL: QAVVTQEPSLSVSPGGTVTLTCGLSSGSVTTRSYPGWFQQTPGQAPRSLIHSTSSRHSGIPTRFSGSISGNKAALTITGAQPEDEADYYCALDIGSYIVFGGGTHLTVL
notes: scFv-Fc format

The binders below were run against cynomologus monkey ApoC3 (cynoApoC3), native protein (Macaca fascicularis (cynomologus monkey), UniProt P18659 21-99) (assay: SPR (Biacore 3000), antibody IgG1 amine-coupled to a CM5 chip, native ApoC3 injected, HBS-EP pH 7.4).
Chain of cynomologus monkey ApoC3 (cynoApoC3), native protein (P18659 21-99 limits assumed): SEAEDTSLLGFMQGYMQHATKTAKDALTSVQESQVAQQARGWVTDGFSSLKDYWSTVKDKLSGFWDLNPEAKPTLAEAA
Procedure: The SPR experiments were carried out using a Biacore 3000 instrument (GE Healthcare). Flow cells of CM5 sensor chips were coupled with the generated IgG formatted antibodies of 14C7, 5A7, 5E5 and 6A6 (˜2000 RU) using the amine coupling chemistry. The coupling was performed using the adaptive immobilization Biacore protocol aiming 2000 RU as coating density, using 10 μg/ml antibody solutions in 10 mM sodium acetate buffer at pH 5.0. For all experiments the HBS-EP buffer at pH 7.4 was used as running and dilution buffer. 60 μl of human native ApoC3 or cynomologus monkey native ApoC3 protein preparations in the concentration range of 10 to 200 μg/ml were injected over all flow channels, followed by an off-rate wash at pH7.4 for 5 min. All injections were performed at a constant flow rate of 30 μl/min at 25° C. After the dissociation, the flow cell surfaces were regenerated by injecting 10 μl of 10 mM NaOH/1 M NaCl and 10 μl of 10 mM glycine at pH1.5. The resulting sensorgrams after blank channel subtraction were used to confirm cross-species reactivity and to evaluate affinity.

Row | Binder | binding result
1 | B1 | binds
2 | B2 | binds
3 | B3 | binds

The binders below were run against T1, human ApoC3 (huApoC3), native protein purified from human serum (human, UniProt P02656 21-99) (assay: cell-based or functional assay).
T1 sequence (P02656 21-99): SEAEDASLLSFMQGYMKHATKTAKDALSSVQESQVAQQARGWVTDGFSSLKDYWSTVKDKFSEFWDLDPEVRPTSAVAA

Row | Binder | attenuation of the ability of ApoC3 to inhibit VLDL uptake by HepG2 cells [%] | EC50, attenuation of ApoC3-mediated LPL inhibition (NEFA production) [nM]
4 | B4 | ~70 | –
5 | B2 | – | ~2000
6 | B5 | ~100 | –
7 | B6 | ~100 | –
8 | B7 | ~75 | –
9 | B8 | ~70 | –
10 | B3 | – | > 5000
11 | B9 | ~75 | –
12 | B10 | ~40 | –
13 | B11 | ~55 | –

These binders were tested against T1, human ApoC3 (huApoC3), native protein … (assay: SPR Biacore, huApoC3 on chip, IgG1 as analyte).

Row | Binder | Ka [M⁻¹] | Kd [nM] | koff [s⁻¹] | kon [M⁻¹ s⁻¹]
14 | B2 | 1.46e+09 | 0.684 | 5.61e-05 | 82000

Each binder was assayed against T1, human ApoC3 (huApoC3), native protein … (assay: SPR Biacore, huApoC3 on chip, scFv-Fc as analyte).
Procedure: This example describes characterization of anti-ApoC3 antibodies regarding their affinity to ApoC3 under neutral conditions using an SPR-based assay using a Biacore 3000 instrument (Biacore AB). Native huApoC3 protein was immobilized on a CM5 chip. The immobilization was performed in accordance with the method provided by Biacore using the NHS/EDC kit (Biacore AB): after activation of the chip, a solution of 60 μg/ml of human ApoC3 in 10 mM acetate buffer with pH of 4.5 was prepared and injected until the surface density reached approximately 1000 RU. Capturing of the human ApoC3 on the streptavidin coated chip (SA) was performed at pH 7.4 in accordance with a method provided by Biacore via injection of 20 μl 10 μg/ml biotinylated human ApoC3 thereby reaching the surface density of approximately 500 RU. […] After the dissociation, the flow cell surfaces were regenerated by injecting 10 μl of 10 mM […]/1 M NaCl and 10 μl of 10 mM glycine at pH1.5. The resulting sensorgrams were analyzed using the BIAevaluation 4.1 software using Langmuir 1:1 binding model to derive binding kinetics. Data was zero adjusted and the reference cell sensorgrams were subtracted.
A number of scFv-Fc antibodies were examined in this assay. The association rate (ka), dissociation rate (kd), analyte binding capacity (Rmax), equilibrium association constant (KA) and equilibrium dissociation constant (KD) of these antibodies are shown in Table 5.

Row | Binder | Ka [M⁻¹] | Kd [nM] | koff [s⁻¹] | kon [M⁻¹ s⁻¹]
15 | B4 | 2.58e+09 | 0.388 | 6.64e-05 | 171000
16 | B5 | 5.94e+08 | 1.68 | 0.000437 | 260000
17 | B6 | 3.02e+09 | 0.331 | 0.000351 | 1.06e+06
18 | B7 | 1.72e+09 | 0.581 | 9.44e-05 | 163000
19 | B8 | 2.52e+09 | 0.397 | 7.44e-05 | 187000
20 | B9 | 6.41e+09 | 0.156 | 0.000186 | 1.19e+06
21 | B10 | 4.27e+09 | 0.234 | 7.02e-05 | 300000
22 | B11 | 2.15e+09 | 0.465 | 0.000668 | 1.44e+06
